Data on 5 molecules can be found in PMC4992063, “PARP3 is a sensor of nicked nucleosomes and monoribosylates histone H2BGlu2”.

In data set [1] the test system is His-tagged cPARP3 (Gallus gallus). The experiment in a line: negative-stain EM with Ni-NTA nanogold. Particulars: NMR: 20 mM Tris-HCl pH 7.0, 125 mM NaCl, 1 mM TCEP, 10% D2O, 303 K, ~300 uM protein, EMSA and EM buffers not given in material.
Data set [2] deals with Reconstituted nicked mononucleosome (recombinant histone octamer on 601.2 DNA with a site-specific nick) (Xenopus laevis | not stated). As to the kind of experiment: Ni-NTA nanogold labelling with negative-stain electron microscopy; full-length His-tagged cPARP3 incubated for 30 min with intact or nicked nucleosomes; Ni-NTA-conjugated 5 nm gold added at 1:10 (cPARP3-nucleosomes:Ni-gold); negative stain with 2% uranyl acetate.

The target in data set [3] is T1, cPARP3 NTD-WGR (1-169) (Gallus gallus, UniProt E1BSI0 1-169).
T1 sequence: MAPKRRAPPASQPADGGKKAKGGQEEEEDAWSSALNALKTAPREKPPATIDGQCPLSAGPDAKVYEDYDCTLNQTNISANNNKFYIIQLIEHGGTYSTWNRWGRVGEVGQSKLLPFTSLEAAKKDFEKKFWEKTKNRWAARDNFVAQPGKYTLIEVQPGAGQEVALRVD
The experiment in a line: NMR (1H-15N HSQC titration); protein:DNA 5:1 to 1:2; NMR: 20 mM Tris-HCl pH 7.0, 125 mM NaCl, 1 mM TCEP, 10% D2O, 303 K, ~300 uM protein; EMSA and EM buffers not given in material. Particulars: protein: recombinant; tags: N-terminal His tag (pNIC28-Bsa4) removed by TEV; 15N/13C labelled; nicked duplex: S42 (10 nt) and S43 (9 nt) annealed to S41. On the technique in general: In EMSA bound probe runs differently from free probe, usually more slowly.

In data set [4] the target is T1, cPARP3 NTD-WGR (1-169). As to the kind of experiment: NMR (1H-15N HSQC); NMR: 20 mM Tris-HCl pH 7.0, 125 mM NaCl, 1 mM TCEP, 10% D2O, 303 K, ~300 uM protein; EMSA and EM buffers not given in material. Particulars: protein: recombinant; tags: N-terminal His tag (pNIC28-Bsa4) removed by TEV; 15N/13C labelled; 9 bp with 3' overhang 10 nt on S41.

intact 601.2 mononucleosome: the binding signal (% of nucleosomes with gold particle) in data set [1] was found to be 30.

For the molecule “Full-length His-tagged chicken PARP3 (from UniProt E1BSI0 1-526) (enzyme)”, the percent of nucleosomes with a co-locating gold particle in data set [2] was found to be 85%.

Consider nicked 601.2 mononucleosome, for which the binding signal (% of nucleosomes with gold particle) in data set [1] (single nick at nucleotide 45 (Nt.BsmAI)) is 85.

B1: 19-bp duplex with 5'-phosphorylated nick (Gap0 NMR) (dsDNA)
DNA 1: GCACAGCCGTGAGCGATGC
DNA 2: GCATCGCTCA
DNA 3: CGGCTGTGC
modifications: 5'-phosphate on S43
For the molecule B1, the binding result with cPARP3 NTD-WGR (1-169) [3] is “binds”.

B2: 10-nt 3'-overhang duplex with recessed 5'-phosphate (dsDNA)
DNA 1: GCACAGCCGTGAGCGATGC
DNA 2: CGGCTGTGC
modifications: 5'-phosphate on S43
As to B2, the binding result in the data set with cPARP3 NTD-WGR (1-169) [4] is listed as “binds”.
